# Values joined by “and” are separate entries in the source; they are usually repeats but may differ in a detail not shown here. Equal entries are not always repeated.
# B1: humanized 3S193 VL-0-VH scFv multimer (scFv, V domains shown)
# VH: EVQLVESGGGVVQPGRSLRLSCSTSGFTFSDYYMYWVRQAPGKGLEWVAYMSNVGAITDYPDTVKGRFTISRDNSKNTLFLQMDSLRPEDTGVYFCARGTRDGSWFAYWGQGTPVTVSS
# VL: DIQMTQSPSSLSASVGDRVTITCRSSQRIVHSNGNTYLEWYQQTPGKAPKLLIYKVSNRFSGVPSRFSGSGSGTDFTFTISSLQPEDIATYYCFQGSHVPFTFGQGTKLQIT
# Molecular target: humanized 3S193 VL-0-VH scFv multimer (humanized (mouse CDRs on human frameworks))
# Assay: SEC
binder,measurement,value
B1,stoichiometry N,3 and 4

# Source: publication PMC2663784
